Reference: patent publication US12570711B2, “Platforms for co-stimulation, novel car designs and other enhancements for adoptive cellular therapy” (Angeles Therapeutics, Inc., priority 2017, dated 2026)

Columns and labels:
[1] = test system: bone marrow derived dendritic cells (DC); test: Bone marrow derived dendritic cells expressing selective NF-κB activators: cytokine production, antigen presentation, immune response; type: cell-based; conditions: compared to control DC
From the text: The disclosure further provides that expression of a selective NF-κB activator can be used to improve the cytokine secretion, antigen presentation and immune response generated by antigen presenting cells, including dendritic cells. The disclosure further provides a method of improving the efficacy of vaccine, including cancer vaccines, by expression of a selective NF-κB activator in the antigen presenting cells ex vivo or in vivo. In one embodiment, the use of selective NF-κB activators increase cytokine production (e.g., TNFα) by antigen presenting cells (e.g., dendritic cells) by more than at least 15%.

[2] = test system: NF-κB; test: NF-κB-Luciferase reporter assay in transfected 293FT cells (normalized to RSV-LacZ); type: cell-based; conditions: NF-κB-Luciferase plus RSV-LacZ reporter
Description: The different constructs were transfected in 293FT cells along with an NF-κB-Luciferase reporeter construct and a RSV-LacZ (normalization control) reporter construct and tested for their ability to activate NF-κB using assay described previously.
The constructs were transfected into 293FT cells along with an NF-κB-Luciferase reporeter construct and a RSV-LacZ reporter construct. Approximately 8 hours, post-transfection, cells were left untreated or treated with AP20187 (100 nM). After approximately 72 hours, cell lysates were prepared and analyzed for NF-κB luciferase and LacZ activities as described previously. NF-κB-Luc activity was normalized for LacZ activity to control for difference in transfection efficiency.

[3] = test system: lymph node DCs; test: Lymph node dendritic cells after subcutaneous lentivector injection; type: in vivo, mouse; conditions: s.c. lentivector injection; compared to control vector-injected animals
Description: DC purification from lymph nodes. C57/BL6 mice (Harlan) are injected subcutaneously (s.c.) at the base of the tail with 1×10^8 infectious units (i.u.) lentivector. Six days later, lymph nodes (para-aortical and inguinal) are harvested (cells from mice in each group were pooled), incubated with collagenase CLS-4 (Worthington), and mashed to obtain single-cell suspensions. Fc receptors are blocked before CD11c-positive cells are selected using MACS beads (Miltenyi Biotec).
Following s.c. lentivector injection, transduced DCs are detected in the draining lymph nodes.

[4] = test system: BM-derived DCs; test: Maturation markers on transduced bone marrow-derived dendritic cells by flow cytometry; type: cell-based, mouse; conditions: for maturation markers CD86, CD40, ICAM-1 and CD80 on DCs: compared to transduced DCs in the control vector group; for retention of CD86 on transduced DCs: culture
Description: Transduction of DCs and flow cytometry. Murine bone marrow-derived Dendritic cells (DCs) are prepared as previously described. Immature DCs are transduced on day 4 at an MOT of 20 with lentiviral vectors as described (Rowe H M et al, Molecular Therapy, 13, 2, 2006) and fed every 4 days with fresh medium containing granulocyte-macrophage colony-stimulating factor (50 ng/ml; from Peprotech). On day 5 posttransduction, DCs are harvested, washed, and blocked for Fc receptors before surface staining for maturation markers with the following biotin-conjugated Abs: anti-CD11c, anti-CD86, and anti-I-Ab (MHC class II) (all from BD Pharmingen); anti-CD40 (from Serotec); and anti-CD80, anti-ICAM-1, and anti-Kb (MHC class I) (all from eBioscience). A hamster isotype control Ab (biotin conjugated) is purchased from BD Pharmingen. Abs are then labeled with streptavidin RPE Cy-5 2o reagent (DakoCytomation) before flow cytometry. Lipopolysaccharide (LPS) (50 ng/ml) (Sigma) is added to untransduced DCs and left overnight as a positive control for maturation. Zymosan A (10 μg/ml) treatment (for 30 min at 37° C.) is used as a control for ERK activation.

[5] = test system: EG7.OVA tumor cells; test: EG7.OVA tumor therapy in C57BL/6 mice; type: in vivo, mouse; conditions: transduced DC injection or direct lentivector injection after lethal dose of EG7.OVA
Description: Tumor therapy. EG7.OVA tumor cells are grown in RPMI plus 0.4 mg/ml G418 (Invitrogen). C57BL/6 mice are challenged with 2×10^6 tumor cells injected s.c. into the flank and then vaccinated.
Mice are inoculated with a lethal dose of EG7.OVA tumor cells before vaccinating them either with transduced DCs or with the human NEMO-K277A-, human NEMO-K277A-deltaV249-K255-, mouse NEMO-K270A- and IKK2-S177E-S181E-vectors directly. All mice are shown to develop tumors.

How did the “cytokine production, antigen presentation and immune response of DC” value (“cytokine production” for short) [1] turn out when “K13-opt: vFLIP K13 encoded by human codon optimized nucleic acid sequence” was run?
Its value is “superior cytokine production, antigen presentation, and immune response”.

For “hNEMO-K277A: human NEMO mutant K277A, constitutively active selective NF-κB activator used as accessory module”, which “cytokine production” value [1] is on record?
The value was “superior cytokine production, antigen presentation, and immune response”.

What about the “activation of NF-κB” value [2] of the same molecule?
The value was “strong activation”.

What about the “CD86 on lymph node DCs” value [3] of the same molecule?
Its value is “upregulation of CD86”.

What about the “maturation markers CD86, CD40, ICAM-1 and CD80 on DCs” value (from here on “maturation markers CD86, CD40”) [4] of the same molecule?
The value was “upregulated”.

What about the “retention of CD86 on transduced DCs” value [4] of the same molecule?
The value was “retain their upregulated CD86 for several weeks in culture”.

And the “number of tumor-free mice” value [5]?
The value was “higher than that in the control group”.

For “hNEMO-K277G: hNEMO mutant in which Lys (K) at residue 277 is replaced by G”, which “activation of NF-κB” value [2] is on record?
The value was “weak activation”.

Which “activation of NF-κB” value [2] does the source give for “hNEMO-K277I: hNEMO mutant in which Lys (K) at residue 277 is replaced by I” here?
Its value is “weak activation”.

For hNEMO-K277L: hNEMO mutant K277L, which “activation of NF-κB” value [2] is on record?
The value was “NF-κB activation”.

B1: hNEMO-K277A-DeltaV249-K255: mutant lacking aminoacid residues V249-K255 of human NEMO and carrying the K277A mutation (protein)
chain: MNRHLWKSQLCEMVQPSGGPAADQDVLGEESPLGKPAMLHLPSEQGAPETLQRCLEENQELRDAIRQSNQILRERCEELLHFQASQREEKEFLMCKFQEARKLVERLGLEKLDLKRQKEQALREVEHLKRCQQQMAEDKASVKAQVTSLLGELQESQSRLEAATKECQALEGRARAASEQARQLESEREALQQQHSVQVDQLRMQGQSVEAALRMERQAASEEKRKLAQLQVAYHQLFQEYDNHIKSSRGMQLEDLKQQLQQAEEALVAAQEVIDKLKEEAEQHKIVMETVPVLKAQADIYKADFQAERQAREKLAEKKELLQEQLEQLQREYSKLKASCQESARIEDMRKRHVEVSQAPLPPAPAYLSSPLALPSQRRSPPEEPPDFCCPKCQYQAPDMDTLQIHVMECIE
What does the source list for B1?
cytokine production, antigen presentation and immune response of DC [1]: superior cytokine production, antigen presentation, and immune response; activation of NF-κB [2]: NF-κB activation; CD86 on lymph node DCs [3]: upregulation of CD86; maturation markers CD86, CD40, ICAM-1 and CD80 on DCs [4]: upregulated; retention of CD86 on transduced DCs [4]: retain their upregulated CD86 for several weeks in culture; number of tumor-free mice [5]: higher than that in the control group

B2: IKK1-S176E-S180E: constitutive active mutant of IKKa/IKK1 (protein)
chain: MERPPGLRPGAGGPWEMRERLGTGGFGNVCLYQHRELDLKIAIKSCRLELSTKNRERWCHEIQIMKKLNHANVVKACDVPEELNILIHDVPLLAMEYCSGGDLRKLLNKPENCCGLKESQILSLLSDIGSGIRYLHENKIIHRDLKPENIVLQDVGGKIIHKIIDLGYAKDVDQGELCTEFVGTLQYLAPELFENKPYTATVDYWSFGTMVFECIAGYRPFLHHLQPFTWHEKIKKKDPKCIFACEEMSGEVRFSSHLPQPNSLCSLIVEPMENWLQLMLNWDPQQRGGPVDLTLKQPRCFVLMDHILNLKIVHILNMTSAKIISFLLPPDESLHSLQSRIERETGINTGSQELLSETGISLDPRKPASQCVLDGVRGCDSYMVYLFDKSKTVYEGPFASRSLSDCVNYIVQDSKIQLPIIQLRKVWAEAVHYVSGLKEDYSRLFQGQRAAMLSLLRYNANLTKMKNTLISASQQLKAKLEFFHKSIQLDLERYSEQMTYGISSEKMLKAWKEMEEKAIHYAEVGVIGYLEDQIMSLHAEIMGLQKSPYGRRQGDLMESLEQRAIDLYKQLKHRPSDHSYSDSTEMVKIIVHTVQSQDRVLKELFGHLSKLLGCKQKIIDLLPKVEVALSNIKEADNTVMFMQGKRQKEIWHLLKIACTQSSARSLVGSSLEGAVTPQTSAWLPPTSAEHDHSLSCVVTPQDGETSAQMIEENLNCLGHLSTIIHEANEEQGNSMMNLDWSWLTE
With B2 as the molecule, how does the “cytokine production” value [1] read?
Its value is “superior cytokine production, antigen presentation, and immune response”.

B3: IKK2-S177E-S181E: constitutive active mutant of IKKβ/IKK2 (protein)
chain: MSWSPSLTTQTCGAWEMKERLGTGGFGNVIRWHNQETGEQIAIKQCRQELSPRNRERWCLEIQIMRRLTHPNVVAARDVPEGMQNLAPNDLPLLAMEYCQGGDLRKYLNQFENCCGLREGAILTLLSDIASALRYLHENRIIHRDLKPENIVLQQGEQRLIHKIIDLGYAKELDQGELCTEFVGTLQYLAPELLEQQKYTVTVDYWSFGTLAFECITGFRPFLPNWQPVQWHSKVRQKSEVDIVVSEDLNGTVKFSSSLPYPNNLNSVLAERLEKWLQLMLMWHPRQRGTDPTYGPNGCFKALDDILNLKLVHILNMVTGTIHTYPVTEDESLQSLKARIQQDTGIPEEDQELLQEAGLALIPDKPATQCISDGKLNEGHTLDMDLVFLFDNSKITYETQISPRPQPESVSCILQEPKRNLAFFQLRKVWGQVWHSIQTLKEDCNRLQQGQRAAMMNLLRNNSCLSKMKNSMASMSQQLKAKLDFFKTSIQIDLEKYSEQTEFGITSDKLLLAWREMEQAVELCGRENEVKLLVERMMALQTDIVDLQRSPMGRKQGGTLDDLEEQARELYRRLREKPRDQRTEGDSQEMVRLLLQAIQSFEKKVRVIYTQLSKTVVCKQKALELLPKVEEVVSLMNEDEKTVVRLQEKRQKELWNLLKIACSKVRGPVSGSPDSMNASRLSQPGQLMSQPSTASNSLPEPAKKSEELVAEAHNLCTLLENAIQDTVREQDQSFTALDWSWLQTEEEEHSCLEQAS
B3 was tested. Which “cytokine production” value [1] did it give?
The value was “superior cytokine production, antigen presentation, and immune response”.

And the “CD86 on lymph node DCs” value [3]?
Its value is “upregulation of CD86”.

And the “maturation markers CD86, CD40” value [4]?
Its value is “upregulated”.

What about the “retention of CD86 on transduced DCs” value [4] of the same molecule?
Its value is “retain their upregulated CD86 for several weeks in culture”.

And the “number of tumor-free mice” value [5]?
Its value is “higher than that in the control group”.

B4: mNEMO-K270A: mouse NEMO-K270A mutant, known to activate NF-κB constitutively (protein)
chain: MNKHPWKNQLSETVQPSGGPAEDQDMLGEESSLGKPAMLHLPSEQGTPETLQRCLEENQELRDAIRQSNQMLRERCEELLHFQVSQREEKEFLMCKFQEARKLVERLSLEKLDLRSQREQALKELEQLKKCQQQMAEDKASVKAQVTSLLGELQESQSRLEAATKDRQALEGRIRAVSEQVRQLESEREVLQQQHSVQVDQLRMQNQSVEAALRMERQAASEEKRKLAQLQAAYHQLFQDYDSHIKSSKGMQLEDLRQQLQQAEEALVAAQELIDKLKEEAEQHKIVMETVPVLKAQADIYKADFQAERHAREKLVEKKEYLQEQLEQLQREFNKLKVGCHESARIEDMRKRHVETPQPPLLPAPAHHSFHLALSNQRRSPPEEPPDFCCPKCQYQAPDMDTLQIHVMECIE
Which “cytokine production” value [1] does the source give for B4 here?
The value was “superior cytokine production, antigen presentation, and immune response”.

What about the “activation of NF-κB” value [2] of the same molecule?
The value was “strong activation”.

What about the “CD86 on lymph node DCs” value [3] of the same molecule?
The value was “upregulation of CD86”.

What about the “maturation markers CD86, CD40” value [4] of the same molecule?
Its value is “upregulated”.

What about the “retention of CD86 on transduced DCs” value [4] of the same molecule?
Its value is “retain their upregulated CD86 for several weeks in culture”.

What about the “number of tumor-free mice” value [5] of the same molecule?
The value was “higher than that in the control group”.
